As a reminder, the IC50 is the concentration at which inhibition is half-maximal. A higher IC50 goes with a need for much substance.

93 sequences from the Immune Epitope Database (IEDB) can be followed below.

The test concerns the target HLA-A*02:01. Nature of the test: IEDB peptide-MHC binding, purified MHC/competitive/fluorescence; ≥ and ≤ were set here for values at or beyond the usual limits of such assays. Conditions: source organism: Homo sapiens.
Take QPLALEGSL: the IC50 is at least 100 µM.
In turn, LWGPDPAAA came in with an IC50 of at least 100 µM.
For the sequence PLLALLALWG, the IC50 amounted to 43.5 µM.
On to LPLLALLALW, for which the IC50 is at least 100 µM.
In the case of EAEDLQVGQ, the half-inhibitory concentration (IC50) was at least 100 µM.
The sequence ALLALWGPD had an IC50 of at least 100 µM.
To AAFVNQHLCG belongs at least 100 µM; to LLPLLALLAL, 5.84 µM; to LQPLALEGS, at least 100 µM.
AAAFVNQHL registered an IC50 of 5.02 µM.
Take LWGPDPAAAF: the IC50 is at least 100 µM.
To PLALEGSLQ belongs at least 100 µM; to WGPDPAAAF, at least 100 µM.
LLPLLALLA gave an IC50 of 1.37 µM.
Sequence VELGGGPGAG had an IC50 of at least 100 µM.
For the sequence GAGSLQPLAL, the 50% inhibitory concentration (IC50) was at least 100 µM.
The sequence AGSLQPLALE yielded an IC50 of at least 100 µM.
Next, IVEQCCTSI: at least 100 µM; SLQPLALEGS: at least 88 µM; GSLQPLALEG: at least 100 µM.
To ELGGGPGAG belongs at least 100 µM; to QCCTSICSLY, at least 100 µM; to EQCCTSICSL, at least 100 µM.
Consider GGGPGAGSLQ, for which the 50% inhibitory concentration (IC50) is at least 100 µM.
As for QPLALEGSLQ, the half-maximal inhibitory concentration (IC50) is at least 100 µM.
AAAFVNQHLC yielded an IC50 of at least 100 µM.
PGAGSLQPLA showed an IC50 of at least 100 µM.
Turning to GQVELGGGPG, the IC50 is at least 100 µM.
On to ICSLYQLENY, for which the IC50 was at least 100 µM.
Consider ICSLYQLEN, for which the IC50 is at least 100 µM.
The sequence DPAAAFVNQ had an IC50 of at least 100 µM.
To AEDLQVGQVE belongs at least 100 µM; to LPLLALLAL, 11.8 µM.
On to LALEGSLQK, for which the IC50 was at least 100 µM.
For the sequence CTSICSLYQ, the IC50 is at least 100 µM.
EDLQVGQVE showed a half-maximal inhibitory concentration (IC50) of at least 100 µM.
With GPDPAAAFV, the IC50 is at least 100 µM.
With GIVEQCCTS, the IC50 is at least 100 µM.
On to DLQVGQVELG, for which the half-inhibitory concentration (IC50) is at least 100 µM.
Next, GGPGAGSLQ: at least 100 µM; PLLALLALW: at least 100 µM; ELGGGPGAGS: at least 100 µM.
The sequence AFVNQHLCG yielded an IC50 of at least 100 µM.
Sequence AFVNQHLCGS gave an IC50 of at least 100 µM.
Turning to DLQVGQVEL, the IC50 was at least 100 µM.
Next, QVGQVELGGG: at least 100 µM; LQVGQVELGG: at least 100 µM; GGPGAGSLQP: at least 100 µM.
As to VEQCCTSICS, the half-maximal inhibitory concentration (IC50) is at least 100 µM.
In turn, PGAGSLQPL came in with an IC50 of at least 100 µM.
To PAAAFVNQHL belongs at least 100 µM; to SLYQLENYCN, at least 100 µM.
CCTSICSLYQ had an IC50 of at least 100 µM.
The sequence LLALLALWG gave an IC50 of at least 100 µM.
Take AGSLQPLAL: the IC50 is at least 100 µM.
Regarding QVGQVELGG, the IC50 was at least 100 µM.
Sequence QVELGGGPG showed an IC50 of at least 100 µM.
In the case of LGGGPGAGS, the IC50 is at least 100 µM.
As for VGQVELGGGP, the IC50 was at least 100 µM.
To TSICSLYQLE belongs at least 100 µM.
As for DPAAAFVNQH, the IC50 is at least 100 µM.
Turning to LALWGPDPA, the IC50 is at least 100 µM.
For GGGPGAGSL, the IC50 is at least 100 µM.
In turn, QVELGGGPGA showed an IC50 of at least 100 µM.
VGQVELGGG displayed an IC50 of at least 100 µM.
ERGFFYTPK came in with an IC50 of at least 100 µM.
As for LLALWGPDPA, the IC50 was found to be 1.96 µM.
For the sequence CCTSICSLY, the IC50 was at least 100 µM.
WGPDPAAAFV displayed an IC50 of 4.46 µM.
Sequence SICSLYQLE registered an IC50 of at least 100 µM.
Take ALWGPDPAA: the IC50 was determined as 0.88 µM. In other words, the sub-micromolar range.
PAAAFVNQH: the IC50 is at least 100 µM.
Sequence GSLQPLALE registered an IC50 of at least 100 µM.
For the sequence VELGGGPGA, the IC50 was at least 100 µM.
SICSLYQLEN gave an IC50 of at least 100 µM.
Turning to PDPAAAFVN, the IC50 was at least 100 µM.
EQCCTSICS showed an IC50 of at least 100 µM.
AEDLQVGQV displayed an IC50 of at least 100 µM.
Next, LGGGPGAGSL: at least 100 µM; PLALEGSLQK: at least 100 µM.
To LALLALWGP belongs at least 100 µM; to GQVELGGGP, at least 100 µM.
As to LQVGQVELG, the IC50 is at least 100 µM.
To EDLQVGQVEL belongs at least 100 µM.
Next, LLALLALWGP: 29.6 µM.
For the sequence VEQCCTSIC, the IC50 is at least 100 µM.
For GPGAGSLQP, the IC50 was at least 100 µM.
To TSICSLYQL belongs at least 100 µM.
PDPAAAFVNQ had an IC50 of at least 100 µM.
Consider LQPLALEGSL, for which the IC50 was at least 100 µM.
In turn, GPDPAAAFVN yielded an IC50 of at least 100 µM.
Sequence LYQLENYCN displayed an IC50 of at least 100 µM.
To CTSICSLYQL belongs at least 97.7 µM.
